This is an account of results in patent US20210317419.

The target of the data set is T1, D-proline reductase PrdA protein derived from Peptoclostridium difficile 630, with 6X histidine tags at both termini (H6-prdA-H6).
T1 chain: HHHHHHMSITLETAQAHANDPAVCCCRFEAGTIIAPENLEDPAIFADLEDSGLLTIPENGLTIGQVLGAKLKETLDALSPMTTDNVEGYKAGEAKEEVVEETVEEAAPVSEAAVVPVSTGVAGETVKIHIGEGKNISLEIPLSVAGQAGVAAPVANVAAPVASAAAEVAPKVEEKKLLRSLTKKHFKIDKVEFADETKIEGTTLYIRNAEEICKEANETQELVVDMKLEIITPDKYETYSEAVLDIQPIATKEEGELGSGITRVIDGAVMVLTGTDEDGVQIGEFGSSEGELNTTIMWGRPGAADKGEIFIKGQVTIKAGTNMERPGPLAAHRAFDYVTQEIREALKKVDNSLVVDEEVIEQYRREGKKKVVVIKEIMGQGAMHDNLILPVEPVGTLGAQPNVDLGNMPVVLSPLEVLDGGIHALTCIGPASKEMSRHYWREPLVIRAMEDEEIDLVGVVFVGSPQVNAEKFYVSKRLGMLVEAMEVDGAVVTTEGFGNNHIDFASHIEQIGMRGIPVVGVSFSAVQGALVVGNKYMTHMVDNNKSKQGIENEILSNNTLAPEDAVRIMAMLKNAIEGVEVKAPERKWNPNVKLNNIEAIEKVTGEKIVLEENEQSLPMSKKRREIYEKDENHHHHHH

B1: D-proline reductase PrdB protein derived from Peptoclostridium difficile 630, with a 6X histidine tag at the carboxyl terminus (prdB-H6) (protein)
chain: MSLTTVQGLQSEIFVPITPPPVWTPVTKELKDMTIALATAAGVHLKSDKRFNLAGDTTFRAIPNTATVDEMMVSHGGYDNGDVNKDINCMFPIDRLHELAAEGFIKGVAPMHYAFMGGGGNQHVFTEETGPAIAAKLKEEGVDGVVMTAGGTCHRTAVIVQRAIEEAGIPTIIIAALPPVVRQNGTPRAVAPLVPMGANAGEPHNIEMQTHILRDTLEQLVAIPSAGKIVPLPYEYKAHVHHHHHH
For the protein B1, the “self-cleavage of PrdA protein (Western blot of lysates of co-expressing E. coli)” value is “PrdH protein and PrdB protein must exist at the same time to induce self-cleavage of PrdA protein”.
